According to US20220119459A1 (OXFORD UNIVERSITY INNOVATION, published 2022):
Numbering of substitutions follows the chain as printed. Names and notes keep the numbering of the source.

B1: SpyCatcher002 D5A variant with proline at position 92 and aspartic acid at position 100 (SEQ ID NO:47) (designed binder)
chain: GAMVATLSGLSGEQGPSGDMTTEEDSATHIKFSKRDEDGRELAGATMELRDSSGKTISTWISDGHVKDFYLYPGKYTFVETAAPDGYEVATPITFTVNEDGQVTVNGEATKGDAHT
B2: SpyCatcher002 D5A variant with proline at position 92 (SEQ ID NO:45) (designed binder)
chain: B1 chain with D100Q
B3: SpyCatcher002 D5A variant with aspartic acid at position 100 (SEQ ID NO:46) (designed binder)
chain: B1 chain with P92A

How the values were obtained:
SpyCatcher002 = test: 0.5 µM each, PBS pH 7.5, 25 °C, SDS-PAGE with Coomassie staining (FIG. 15A)
Target sequence in this assay (chain, as listed by the source): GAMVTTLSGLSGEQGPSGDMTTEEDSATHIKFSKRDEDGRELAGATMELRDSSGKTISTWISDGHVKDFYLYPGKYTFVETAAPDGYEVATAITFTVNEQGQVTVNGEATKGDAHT

AP-SpyTag002-MBP = molecular target: T1, AP-SpyTag002-MBP; test: 0.5 µM each, PBS pH 7.5, 25 °C, SDS-PAGE with Coomassie staining (FIG. 16)
T1 construct: not shown: AP peptide tag for site-specific biotinylation; only primer DNA is printed for it

| Molecule | percent increase in activity against SpyTag002 (SEQ ID NO: 3) (SpyCatcher002) [%] | reaction rate (second-order rate constant) (AP-SpyTag002-MBP) [M⁻¹ s⁻¹] |
| --- | --- | --- |
| SpyTag002 T3H-MBP | 35 | – |
| B1 | – | 20300 |
| B2 | – | 14000 |
| B3 | – | 15500 |
